# T1: FLAG-Human-Notch2-NRR-6xHis (human, UniProt Q04721 1306-1676)
# T1 construct: Whole tagged antigen construct; also called NRR2; hNotch2 NRR
# T1 sequence: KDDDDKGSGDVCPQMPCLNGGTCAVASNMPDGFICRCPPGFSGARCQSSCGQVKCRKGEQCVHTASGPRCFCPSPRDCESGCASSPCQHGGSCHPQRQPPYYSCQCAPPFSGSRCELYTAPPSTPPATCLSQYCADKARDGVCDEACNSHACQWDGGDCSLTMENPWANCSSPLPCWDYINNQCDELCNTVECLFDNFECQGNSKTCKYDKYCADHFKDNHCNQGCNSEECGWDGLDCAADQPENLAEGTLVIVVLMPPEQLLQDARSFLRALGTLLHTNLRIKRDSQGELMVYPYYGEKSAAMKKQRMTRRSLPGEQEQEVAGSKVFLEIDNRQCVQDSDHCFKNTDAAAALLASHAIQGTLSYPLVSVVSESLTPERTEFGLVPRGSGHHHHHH
# T2: Mouse Notch2-NRR-FLAG (mouse, UniProt O35516 1306-1678)
# T2 construct: Whole tagged antigen construct; also called murine Notch2 NRR; mNotch2 NRR
# T2 sequence: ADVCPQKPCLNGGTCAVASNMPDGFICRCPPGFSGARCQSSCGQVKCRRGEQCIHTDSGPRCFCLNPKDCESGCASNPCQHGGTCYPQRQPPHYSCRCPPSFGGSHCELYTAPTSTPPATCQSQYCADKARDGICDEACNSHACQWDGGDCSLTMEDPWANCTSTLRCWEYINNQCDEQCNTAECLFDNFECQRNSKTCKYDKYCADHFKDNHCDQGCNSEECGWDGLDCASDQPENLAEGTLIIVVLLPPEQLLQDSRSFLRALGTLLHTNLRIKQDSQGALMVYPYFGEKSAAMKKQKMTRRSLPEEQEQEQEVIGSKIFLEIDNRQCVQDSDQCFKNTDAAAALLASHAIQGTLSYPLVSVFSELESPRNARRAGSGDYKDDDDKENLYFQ
# T3: mouse Notch4-NRR protein (mouse, UniProt P31695 1168-1441, limits assumed)
# T3 construct: domain: NRR; also called mNotch4 NRR
# T3 sequence (looked up): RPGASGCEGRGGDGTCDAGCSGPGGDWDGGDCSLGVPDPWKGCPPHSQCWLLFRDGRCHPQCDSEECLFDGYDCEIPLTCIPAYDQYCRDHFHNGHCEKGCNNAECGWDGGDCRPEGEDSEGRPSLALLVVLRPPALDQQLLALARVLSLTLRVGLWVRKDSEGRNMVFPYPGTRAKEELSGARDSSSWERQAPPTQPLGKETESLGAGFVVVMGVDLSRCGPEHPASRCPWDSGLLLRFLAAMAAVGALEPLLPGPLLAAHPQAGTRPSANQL
# T4: mouse Notch3-NRR protein (mouse, UniProt Q61982 1385-1641, limits assumed)
# T4 construct: domain: NRR; also called mNotch3 NRR
# T4 sequence (looked up): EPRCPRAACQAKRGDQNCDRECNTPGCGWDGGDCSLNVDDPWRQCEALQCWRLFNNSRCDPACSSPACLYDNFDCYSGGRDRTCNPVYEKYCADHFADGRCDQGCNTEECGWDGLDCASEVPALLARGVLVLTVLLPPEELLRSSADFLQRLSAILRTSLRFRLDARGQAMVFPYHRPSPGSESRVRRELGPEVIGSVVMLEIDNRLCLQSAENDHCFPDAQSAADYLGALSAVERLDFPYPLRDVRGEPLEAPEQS
# T5: mouse Notch1 NRR protein (mouse, UniProt Q01705 1446-1723)
# T5 construct: Purified NRR fragment (Flag-tagged in the ELISA); also called mNotch1 NRR
# T5 sequence: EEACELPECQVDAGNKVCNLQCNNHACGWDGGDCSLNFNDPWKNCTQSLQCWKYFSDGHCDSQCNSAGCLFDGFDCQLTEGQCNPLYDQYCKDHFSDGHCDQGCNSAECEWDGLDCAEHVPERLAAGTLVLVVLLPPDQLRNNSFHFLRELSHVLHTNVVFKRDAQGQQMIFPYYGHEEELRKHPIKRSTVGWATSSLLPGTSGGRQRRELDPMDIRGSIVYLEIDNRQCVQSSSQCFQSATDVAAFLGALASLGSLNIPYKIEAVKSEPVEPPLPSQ
# T6: human Notch1 NRR protein (human, UniProt P46531 1446-1733)
# T6 construct: Purified NRR fragment (Flag-tagged in the ELISA); also called NRR1; hNotch1 NRR
# T6 sequence: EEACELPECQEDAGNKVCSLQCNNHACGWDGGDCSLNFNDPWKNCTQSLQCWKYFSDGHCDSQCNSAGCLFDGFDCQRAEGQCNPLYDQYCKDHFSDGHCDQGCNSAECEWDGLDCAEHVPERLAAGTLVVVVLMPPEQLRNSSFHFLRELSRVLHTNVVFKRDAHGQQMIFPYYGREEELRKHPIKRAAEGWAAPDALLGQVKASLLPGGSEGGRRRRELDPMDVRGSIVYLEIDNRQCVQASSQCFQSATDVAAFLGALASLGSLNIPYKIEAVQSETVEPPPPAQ
# T7: human Notch3-NRR protein (human, UniProt Q9UM47 1384-1641, limits assumed)
# T7 construct: domain: NRR; also called hNotch3 NRR
# T7 sequence (looked up): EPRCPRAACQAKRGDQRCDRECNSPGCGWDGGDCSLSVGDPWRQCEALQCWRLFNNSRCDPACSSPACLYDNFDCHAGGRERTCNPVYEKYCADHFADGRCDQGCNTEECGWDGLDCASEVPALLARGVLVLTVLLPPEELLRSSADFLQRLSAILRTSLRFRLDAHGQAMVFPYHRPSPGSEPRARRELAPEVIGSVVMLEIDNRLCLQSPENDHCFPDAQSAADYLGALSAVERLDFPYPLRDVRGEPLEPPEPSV
# T8: human Notch4-NRR protein (human, UniProt Q99466 1172-1445, limits assumed)
# T8 construct: domain: NRR; also called hNotch4 NRR
# T8 sequence (looked up): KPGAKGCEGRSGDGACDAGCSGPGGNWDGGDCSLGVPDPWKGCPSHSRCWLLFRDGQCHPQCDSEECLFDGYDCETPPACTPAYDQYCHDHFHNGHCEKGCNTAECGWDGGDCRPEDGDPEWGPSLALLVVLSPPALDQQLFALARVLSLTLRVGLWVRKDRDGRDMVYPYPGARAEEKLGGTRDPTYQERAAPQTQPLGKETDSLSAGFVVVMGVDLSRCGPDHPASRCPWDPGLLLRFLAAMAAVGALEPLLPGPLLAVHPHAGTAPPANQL
# Experiments:
# [1] = target: T1, FLAG-Human-Notch2-NRR-6xHis; experiment: SPR (BIAcore-3000), IgG captured by anti-human IgG, Notch2 NRR injected; human Notch2 NRR antigen
# Description: (§1) For kinetics measurements, two-fold serial dilutions of human and mouse Notch2 NRR (3.9 nM to 500 nM) were injected in PBT buffer (PBS with 0.05% Tween 20) at 25° C. with a flow rate of 30 μl/min. Association rates (kₒₙ) and dissociation rates (koff) were calculated using a simple one-to-one Langmuir binding model (BIAcore Evaluation Software version 3.2). The equilibrium dissociation constant (KD) was calculated as the ratio koff/kₒₙ.
# [2] = target: T1, FLAG-Human-Notch2-NRR-6xHis; experiment: ELISA, lower panel: Flag-tagged NRR protein captured by anti-Flag antibody, titration of α-NRR2, AP-conjugated anti-human secondary antibody, A560
# Text: (§2) Anti-Flag antibody was used to capture Flag-Tagged NRR protein from all four Notch receptors in a black walled, high binding plate (Greiner). NRR antibody and E25 control antibodies were bound to the NRR proteins and washed away with PBS. An Alkaline Phosphate conjugated anti-human (H+L) secondary antibody (Jackson ImmunoResearch) was used to detect bound anti-NRR and E25. Unbound secondary was washed away and AP was detected with PNPP substrate (Pierce).
# [3] = target: T2, Mouse Notch2-NRR-FLAG; experiment: SPR (BIAcore-3000), IgG captured by anti-human IgG, Notch2 NRR injected; mouse Notch2 NRR antigen
# Description: as §1
# [4] = target: T3, mouse Notch4-NRR protein; experiment: ELISA, lower panel: Flag-tagged NRR protein captured by anti-Flag antibody, titration of α-NRR2, A560
# Text: as §2
# [5] = target: T4, mouse Notch3-NRR protein; experiment: as above
# Text: as §2
# [6] = target: T5, mouse Notch1 NRR protein; experiment: as above
# Text: as §2
# [7] = target: T6, human Notch1 NRR protein; experiment: as above
# Text: as §2
# [8] = target: T7, human Notch3-NRR protein; experiment: as above
# Text: as §2
# [9] = target: T8, human Notch4-NRR protein; experiment: as above
# Text: as §2
binder,measurement,setting,value
"Antibody D-3 (antibody, V domains shown, also called anti-NRR2; α-NRR2) VH: EVQLVESGGGLVQPGGSLRLSCAASGYTFSSYGMSWVRQAPGKGLEWVSYIYPYSGATYYADSVKGRFTISADTSKNTAYLQMNSLRAEDTAVYYCARHSGYYRISSAMDVWGQGTLVTVSA VL: DIQMTQSPSSLSASVGDRVTITCRASQNIKRFLAWYQQKPGKAPKLLIYGASTRESGVPSRFSGSGSGTDFTLTISSLQPEDFATYYCQQYYRSPHTFGQGTKVEIKR",Kd,[1],5 nM
same,EC50 (read off the curve),[2],~0.03 µg/mL
same,Kd,[3],5 nM
same,binding result,[4],no binding (tested: 10 ug/ml)
same,binding result,[5],no binding (tested: 10 ug/ml)
same,binding result,[6],no binding (tested: 10 ug/ml)
same,binding result,[7],no binding (tested: 10 ug/ml)
same,binding result,[8],no binding (tested: 10 ug/ml)
same,binding result,[9],no binding (tested: 10 ug/ml)

# Reference: US20180057589A1 (Genentech, published 2018)
